# Source: patent US20220332795A1
# Substitutions are numbered along the chain they refer to.
# B1: SEQ ID NO 216 (designed binder, not shown: small tags and cut ends)
# chain: MLPAPKNLVVSRVTEDSARLSWTAPDAAFDSFYIAYAEPRPDGEAISLSVPGSERSYDLTGLKPGTEYSVLIHGVKGGLLSSPPKFTT
# B2: SEQ ID NO 270 (designed binder, not shown: small tags and cut ends)
# chain: MLPAPKNLVVSRVTEDSARLSWTAPDAAFDSFAIEYCETKMCGEAIVLTVPGSERSYDLTGLKPGTEYRVPIPGVKGGTASLPLSAIFTT
# B3: SEQ ID NO 204 (designed binder, not shown: small tags and cut ends)
# chain: MLPAPKNLVVSRVTEDSARLSWTAPDAAFDSFFIGYLEPQPPGEAILLWVPGSERSYDLTGLKPGTEYNVTIQGVKGGFPSQFTT
# B4: SEQ ID NO 268 (designed binder, not shown: small tags and cut ends)
# chain: MLPAPKNLVVSRVTEDSARLSWTAPDAAFDSFYIAYAEPRPDGEAIYLEVPGSERSYDLTGLKPGTEYSVLIHGVKGGLLSSPLFTT
# B5: SEQ ID NO 213 (designed binder, not shown: small tags and cut ends)
# chain: B4 chain with Y47L, E49G
# B6: SEQ ID NO 269 (designed binder, not shown: small tags and cut ends)
# chain: MLPAPKNLVVSRVTEDSARLSWTAPDAAFDSFYIAYAEPRPDGEAIWLDVPGSERSYDLTGLKPGTEYSVLIHGVKGGLLSSPLDAYFTT
# B7: SEQ ID NO 215 (designed binder, not shown: small tags and cut ends)
# chain: B6 chain with W47V, D49W, D85I, Y87E
# B8: SEQ ID NO 212 (designed binder, not shown: small tags and cut ends)
# chain: B6 chain with D49A, D85H, Y87Q
# B9: SEQ ID NO 206 (designed binder, not shown: small tags and cut ends)
# chain: B6 chain with W47G, D85S, Y87I
# B10: SEQ ID NO 209 (designed binder, not shown: small tags and cut ends)
# chain: B6 chain with W47L, D49Q, E54C, D85T, Y87I
# B11: SEQ ID NO 207 (designed binder, not shown: small tags and cut ends)
# chain: B6 chain with W47H, D49S, D85A
# B12: SEQ ID NO 214 (designed binder, not shown: small tags and cut ends)
# chain: B6 chain with W47G, D49Q, D85C, Y87E
# B13: SEQ ID NO 211 (designed binder, not shown: small tags and cut ends)
# chain: B6 chain with W47Q, D49H, D85V, Y87I
# B14: SEQ ID NO 203 (designed binder, not shown: small tags and cut ends)
# chain: MLPAPKNLVVSRVTEDSARLSWTAPDAAFDSFFIGYLEPQPPGEAIVLLVPGSERSYDLTGLKPGTEYNVTIQGVKGGFPSVPLAAFFTT
# B15: SEQ ID NO 208 (designed binder, not shown: small tags and cut ends)
# chain: B14 chain with L49A, V82Y, A85V, F87A
# B16: SEQ ID NO 210 (designed binder, not shown: small tags and cut ends)
# chain: B14 chain with V47N, L49Q, V82F, A85S, F87V
# B17: SEQ ID NO 205 (designed binder, not shown: small tags and cut ends)
# chain: MLPAPKNLVVSRVTEDSARLSWTAPDAAFDSFFIGYLEPQPPGEAILLGVPGSERSYDLTGLKPGTEYNVTIQGVKGGFPSMPLHPLVALFTT
# Target: human serum albumin (human) (UniProt P02768)
# Sequence (P02768 25-609 limits assumed): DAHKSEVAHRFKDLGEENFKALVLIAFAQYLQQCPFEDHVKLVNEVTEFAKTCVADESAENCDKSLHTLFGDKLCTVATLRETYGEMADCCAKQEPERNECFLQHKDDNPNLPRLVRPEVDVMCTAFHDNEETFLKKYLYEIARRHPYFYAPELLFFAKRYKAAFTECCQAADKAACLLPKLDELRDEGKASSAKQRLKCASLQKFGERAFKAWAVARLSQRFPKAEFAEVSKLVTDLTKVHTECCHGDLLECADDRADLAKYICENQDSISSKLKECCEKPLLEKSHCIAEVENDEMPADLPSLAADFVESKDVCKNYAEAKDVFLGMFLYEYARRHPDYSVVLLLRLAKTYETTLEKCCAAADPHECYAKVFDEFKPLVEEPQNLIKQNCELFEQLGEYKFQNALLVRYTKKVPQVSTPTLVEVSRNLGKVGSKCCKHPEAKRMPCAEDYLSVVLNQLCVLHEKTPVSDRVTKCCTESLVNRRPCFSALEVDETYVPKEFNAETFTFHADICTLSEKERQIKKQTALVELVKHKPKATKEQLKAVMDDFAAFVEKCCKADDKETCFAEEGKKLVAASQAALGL
# Test: solution ELISA screen (luminescence)
row,RLU [RLU],Binder
1,192000,B1
2,64400,B2
3,20000,B3
4,117000,B4
5,70300,B5
6,19900,B6
7,22400,B7
8,17400,B8
9,14000,B9
10,17800,B10
11,121000,B11
12,30200,B12
13,13000,B13
14,26000,B14
15,16400,B15
16,48600,B16
17,155000,B17
